Experimental data published in the DeepSol protein solubility set.

Assay: soluble on expression in E. coli; label from the status in PepcDB or PDB records

Soluble on expression in E. coli, not soluble:
VAEKPYLKDPEVAAGYHRVAKRELPEPKIMEVPQRFAAYVRHEGYNRSIRNAWLILKAWASSENRDFSVQYGLHHSNPAWVELDKCRYVACMAIDKPLKVRGVVNQMTIPGGLHAVFRLTGVYGELLPQLSMVLEKWLPNSGFKQRSTPAYVHYHKNHFLSHDEAFELDFYLPISFF
MKFEYEYMETPEDLLMSLSAGFAMAMRNIATVYSYKGYLSYYTPAMSDGEELTMFVTLTKGELAPGLIDFDSENKRIEHVKKATNPEAYHFLVIRPQISTVLDKAIYDFEKSRNQP
MGSDKIHHHHHHMKLIINADDFGFTRAINYGIIDAHNLGVLTSTTLMVTMPAFEHAVDLSKKTPTLGIGLHLNLTLGKPLTNGATLVNEDGELIKPKFTTPEYPYNEEEVYQEFKAQYHRFTEFMKKKPSHLDSHLFSTDIYPVVTSAAKRLAEEIGIPLRNHDTKGFEHVEFMWEKPLEIPYGEYDNLDYIYDNAASILCYDYVEIMTHPGYLDTFILENSTFSTPRANELESLISPRMRQFLNENNVELISYHDIPKK
MSLNKVLVVEDEQLLAQNLQDYLSAQGLEVRIAHDGAEGIGLAETFAPDVLVFDYRLPDMEGFEVLDAVRQNRTCHFVLITGHPTAEVCERARQLGVSHILFKPFPLAELARAVCDLLGIQREAKPGASPSEGFVERRQSRTESFPLQLYDGSWVLADRRRNRSEAMAPDDDQMLTGEEGHHHHHH
MGSDKIHHHHHHMKCLLCGQTMKTVLTFSSLLLLRNDDSCLCSDCDSTFERIGEENCPNCMKTELSTKCQDCQLWCKEGVEVSHRAIFTYNQAMKDFFSRYKFDGDFLLRKVFASFLSEELKKYKEYQFVVIPLSPDRYANRGFNQVEGLVEAAGFEYLDLLEKREERASSSKNRSERLGTELPFFIKSGVTIPKKILLIDDIYTTGATINRVKKLLEEAGAKDVKTFSLVR
MSLEAKVDKPRLNQEQAIAIAAVNSQQGFGCFLLEGVTGSGKTEVYLNLITPVLARGEQALVLVPEIGLTPQTINRFRQRFNVPVEVMHSALNDTERLNAWLAARDKVAGIVIGTRSALLTPFAKLGIIIVDEEHDSSYKQQDSLRYHARDVAVMRAHLENIPIVLGSATPALETLHNALSGKYHHLQLTQRAGNALPTRNHALDVKGLYLESGLSAPLIAEMRRHLSAGNQVMLFLNRRGFSPALMCHECGWIAECQRCDAYYTYHQHSNEMRCHHCGSQRPVLHQCKGCGSTQLVTVGVGTEQLEAQLHTLFPEYRSVRIDRDSTRRKGSLESALTAIRKGEYQILIGTQMLAKGHHFPDVTLVALLDVDGSLYSSDFRASERLAQLFIQVAGRAGRASKPGEVVLQTHHPEHSLLQALLHKDYHHFALTALEERKLAQLPPYSFLSLFRAEANHTAQVEDFLRQVRETLRCNPWFDSECMVLGPTPAPLAKRAGKFRWQLLLQTPNRTLMQKILQSARPALQQLPLASKVRWSIDIDPQDLSEGHHHHHH
GPGSMFRRLSSSARAVVAARFYTPPEGLKKLYASDFENSKYPLNIVPSDSVLFAKFLYKAAEEKGNFDNILSDFQKIAAAASKLPIFWERTAVVEKIPEFKQLSEPTFFTLVWMQNNGMLELIQEVAEVYETFVNAKQKKAVAKIFVAPGGEKNVEEARRVAEELHKGLKELADYTLVLKTVVDRTIVKGFAVELAGQYVNKAEGQQKQAGRADEVDYTNLPAPKPQKTVWDDNIETEVLRKYLDGLSQYDMEEAKYGV
MPFKMSSKAQTIKIFNLRSDTNEFIGAGDAYIPPHTGLPANCTDIAPPDIPSSHIAVFDAETQTWNLKEDHRGETVYDTTTGNQMYISEPGPLPENVTSVSPGGGYKKWDSKAKAWVNDEGAEVAARLREAEGTKSRLLQMASGKIAPLQDAVDLGIATDDEKAQLDEWKKYRVLVNRVDTSNPDWPEQPV
MGSDKIHHHHHHVNFRDLGGYPVGDGRRTRWGRLFRSDSLGALTEEDLALVAALDLYRVVDFRLPHERELHPNRLPVGAGPKVTEIGFWPDGVPEMLKALRELRIDAAGIERAVTGHYRRYAVHHRAEYRRMLEAVEEAAGRPTLIHCVSGKDRTGFGAAVILMALGVPRTVIVEDYLLTNDCRRDIGHLMPSGTTESVAEAFTAARPAYIEAAFESIDTAFGGIDDYLAHGLGFGEQRLQRLRECLTEPATGSASLLSPRRAGNP
SLQMQGITGSNITVLELVERYLSLKTGVKHNTLANYKFVVNVLKKEEFAYKKVDDVKLSDAKIFLIKLQRDGRGYSSIHSIRGVLRPAFQMAVDDDLILKNPFGFELGTVLVNDSQKRQAVSPEDETKFLDFVKNDPHYNQYYDAFYILFKTGLRISEFCGLTVKDLDFKEDIINVNHQLQRTREMKYIIVSTKTTSGTRLLPMEADVKEAFLRILKNRRKPKREPMVDGYGGFLFLDKNGRPMVALHWEKYMQHAREKYNRENLLQLPPVTPHICRHTYCTNMANSGMNPKTLQYLMGHSDVSVTLNIYTHTGYDDAKKELARLKEARDELEKKKFITQKHAQTTHVSLIS
MGSDKIHHHHHHGNSSTGLSSGGSNVSLEVLKHRPLVEKYAKESDILEYVPILLAIIQVESGGTMEDVMQSSESAGFPPNSLSTEASIKQGCIYFASLVNRAKDIGCDQESIIQSYNYGGGYLDYVGKNGKKYSFALAESFSKEKSDGEKVTYSNPIAIKENGGWRYNYGNMFYVMLVKQYLTTTKFDDKTVQGIFDEAFKYEGTAYVFGGSSPATGFDCSGLTQWCYAKVGLQLPRVAQDQYDAMSHIELKDAKPGDLIFFHSTYDAGTYVTHVGIYAGDNRMFHAGDPVGWTNLTETYWQQHIIGAGRYKNRKGDR
MLLTNHAKERIAKRLAKKRKIYKIYSTLFSFLKNSIRIEVEDTILFTDGNKTLVATKLDGELLDLGDIVKRVKDIEESYECVFWDKKIAKITKPIKFLQEIPPGKYYFYINKEKKVLYIGTHEPLLALTFRPAKRWERALFYFSLEHHHHHH
GPGSMNIQGMALHGHMKPVTMIKFNREGDLLFSTAKEPNVSVWYTKTGERLGTYDGHSAISACDVNNYSTLLVTGGMDFKAKLWCVETGEELANIMLRTPARAVGFSHDDNLLMVSTSRKMGQKSAVQLYNLPFLPPKDGYSIHPVNTVFNPCTEFVSENDDVTFAIWGPTNDTIYYSTSDGSVAILDVETMSTVCTHKPHEETINRISFDSNYYTLITASKDKTARLLDSRDLSVVQTYTSDVPVNDASISPRGDHVIIGGGMDAQDVTTQGGQTTFEVKFYHKVHEKQLGQVRCHFGTINSVCFFPDGRGFASGAFDGLVKLHRFDDKYSSTPGAIPLWTPEGI
MTVPEEAQTLIGKHYRAPDHFLVGREKIREFAVAVKDDHPTHYSEPDAAAAGYPALVAPLTFLAIAGRRVQLEIFTKFNIPINIARVFHRDQKFRFHRPILANDKLYFDTYLDSVIESHGTVLAEIRSEVTDAEGKPVVTSVVTMLGLEHHHHHH
MGSDKIHHHHHHMNEQIIEDLSSPWSGNTVHLVTVDGSQLIKKQYRKKEGYLREVHALRTVPQAICPSLVDAYEQLTYEPLQKNIQAADLDEIIGSLLRELHQHTVQKPSVFDPGNGVTKETWLDYLESFAPNWLQTIGTEKYESMYWSAINSVRAAYDRNQRALCLIHRDARLANVGEGSDGRFLFLDFELAIIGDPLWDVARYLIQSVHSETTFLKAYEFDHTEIEVLQAYKKLYAMSFMNYLIKNKQADTLDFKKCVNVLTN
MRIRRRDEKENQEYKKGLWTVEEDNILMDYVLNHGTGQWNRIVRKTGLKRCGKSCRLRWMNYLSPNVNKGNFTEQEEDLIIRLHKLLGNRWSLIAKRVPGRTDNQVKNYWNTHLSKKLVGDYSSAVKTTGEDDDSPPSLFITAATPSSCHHQQENIYENIAKSFNGVVSASYEDKPKQELAQKDVLMATTNDPSHYYGNNALWVHDDDFELSSLVMMNFASGDVEYCL
MGSDKIHHHHHHMSMDIVERINKLKEEKNAVILAHNYQPKEIQKIADFLGDSLELCIKAKETDADIIVFCGVDFMGESAKILNPEKKVLMPEIEGTQCPMAHQLPPEIIKKYRELYPEAPLVVYVNTTAETKALADITCTSANADRVVNSLDADTVLFGPDNNLAYYVQKRTDKKVIAIPEGGGCYVHKKFTIDDLKRVKSKYPNAKVLIHPECSPELQDNADYIASTSGILRIVLESDDEEFIIGTEVGMINRLEIELEKLGKKKTLIPLRKDAICHEMKRITLEKIEKCLLEERYEIKLEKEIIEKAQKAIERMLRI
MGSDKIHHHHHHMNPKMIRSLKAFTRTVELNSMSAAANELHMTVSAISQQLQRLENDNGISLFHRNTRSLSLTEAGQVFYQSCLDMLAIAAKNQERWDQLTNQPQGQIKIIAPVGFGGGLLSEPLKQLQHEFANVSFQLHMTDEPIDLITAGADLAIRIGPLADSTLYARHLADWHMVPCIAAEHPAAENSIKSFDDLPEGCFIGHIPSLPNKDFPKPKVLLNNMQTVVQLTLDGVGYALLPQPEIKHYIESGRLLRLLPEWEGSPYSVHAVLPIKDNIPAKTERTIEVLSHFFHRL

Soluble on expression in E. coli, soluble:
MPTLIVLIGPTGVGKTELSLRLAENFHTSIVSADSRQLYAELKIGTAAPTPDQLKRVPHYLVGTLHLTDYYSAAQYEQEAMEILHQLFTEHEVVVLTGGSMMYVDAICKGIDDIPTVDAETRQVMLQKYEEEGLEQLCAELRLLDPDYYRIVDLKNPKRVIHALEICYMTGKTYTSFRTQQKKERPFRILKIGLTRDREELYDRINRRVDQMMEEGLLDEVRSVLSYRHLNSLNTVGYKELFKYLDGEWELPFAIEKIKQNSRIYSRKQMTWFKRDEEIRWFHPEQETEILEYLRLQNLTHLPSLDTFLEHHHHHH
MNSAPKLNTFQHLIGEHQTFLEAKRIAKQFSLSELPVLITGKIGTGKNHFAHAIHLESSRSNEPFISVNCSTHSEETLIHELFGPNGNTGVFQKAVRGTLFLDDVWRMPASVQAQLLKALDSDTEKPRMICASADRSVEHTFRQDLFYRLNILTLTLPELSERKSDIPLLTQHFLSNSGQQLLIDPSVFPVLEKHAFEGNVRELKNAADYMAAVSSGGTIQPYDLPPYIRGTIDGKTSKKKAKLLTLMEKAEFLFILETIKVLNEKGEPASRRIISEHSKNTQTSLTPQQVRSRLDYLEKKDYVTKSRGRAGTKITFEGLSFIETLKNQMILEHHHHHH
MPRPQGTVAAAAATTSMSSTRARKDPLRRIGNGNAVAGGLDMTRVGILSDRELAFFQRLAYTGSQAAEQQQRDARKQEEDRRRELSKTRTAGWTDTIEARHDQFVQAQQDAKDAAEARQKVLDELYAKQLEEEHKAVIARQALEHLKEDPRGRHLRSMNMLHEALKARKEQVAYKQMLQREDEAQNANAQREFQLQRWGDQAEELHKKLKARQRNVEEKNANLETVLFQIDQRRQERAVQQQDRKHIDQEAAEERAEQQEEAAQRRARELENGAYNKAHSRPALTRSEKLQTRVAENVKDEAALRAEEEKVDSIKRWVMERQQNKLAAFEERKKAGLRRYLDEAKQENLPTYRTQDVFEKGESFLQKLYDGDVKQQEKQHEYRLEMEQQRLEMEEQKAAEARGDVVGSGDGADGSTSRRHAAATTAAGFLNKAEEMAYAEEMRRYPEQLRAKEAEEAAARRAEALRIERIQKLQAAEKRENARRAVEARREEFRQQQSQQEADDARYRAYIDSVVPADMDPILYRKATQLH
MKIGIGSDHGGYNLKREIADFLKKRGYEVIDFGTHGNESVDYPDFGLKVAEAVKSGECDRGIVICGTGLGISIAANKVPGIRAAVCTNSYMARMSREHNDANILALGERVVGLDLALDIVDTWLKAEFQGGRHATRVGKIGEIEKKYSK
